Among the data in publication PMC6555819, “Comprehensive study of nuclear receptor DNA binding provides a revised framework for understanding receptor specificity” are binding signal values, retold here.

Numbering of substitutions follows the chain as printed.

B1: NRC3_random_hg19_270_o1 (dsDNA)
DNA 1: GCTATAGGAAGCAGGATGTTTCTTGAGAGTGTGGCCGCGATTGACAGCGTAGAATGAAGG
DNA 2: CCTTCATTCTACGCTGTCAATCGCGGCCACACTCTCAAGAAACATCCTGCTTCCTATAGC
B2: NRC3_wobSeed138_DR5_A8G_o1 (dsDNA)
DNA 1: GCGATACGGGGTCAGCTAGAGGCCAGAGTATGGAAAGCGATTGACAGCGTAGAATGAAGG
DNA 2: CCTTCATTCTACGCTGTCAATCGCTTTCCATACTCTGGCCTCTAGCTGACCCCGTATCGC
B3: NRC3_random_hg19_14_o1 (dsDNA)
DNA 1: GCGCAGGGACTATGTGCATTAGGCCAGTTCCTCATGGCGATTGACAGCGTAGAATGAAGG
DNA 2: CCTTCATTCTACGCTGTCAATCGCCATGAGGAACTGGCCTAATGCACATAGTCCCTGCGC
B4: NRC3_random_hg19_317_o1 (dsDNA)
DNA 1: GCGCCTCCTTCTTTCCTTTGTCATCTGGTGGTGGGAGCGATTGACAGCGTAGAATGAAGG
DNA 2: CCTTCATTCTACGCTGTCAATCGCTCCCACCACCAGATGACAAAGGAAAGAAGGAGGCGC
B5: NRC3_random_hg19_20_o1 (dsDNA)
DNA 1: GCTACACTCTCCCAAGACTAAACCAGGAAGAAGTTGGCGATTGACAGCGTAGAATGAAGG
DNA 2: CCTTCATTCTACGCTGTCAATCGCCAACTTCTTCCTGGTTTAGTCTTGGGAGAGTGTAGC
B6: NRC3_random_hg19_31_o1 (dsDNA)
DNA 1: GCCAAGAGGACTCGCACAGTGGTGCATGGCAGCTTGGCGATTGACAGCGTAGAATGAAGG
DNA 2: CCTTCATTCTACGCTGTCAATCGCCAAGCTGCCATGCACCACTGTGCGAGTCCTCTTGGC
B7: NRC3_wobSeed21_DR0_T12C_o1 (dsDNA)
DNA 1: GCCGTCAAAGTCCAAGGTAACGTAACAGAAAGCAGCGCGATTGACAGCGTAGAATGAAGG
DNA 2: CCTTCATTCTACGCTGTCAATCGCGCTGCTTTCTGTTACGTTACCTTGGACTTTGACGGC
B8: NRC3_wobSeed45_DR1_A9C_o1 (dsDNA)
DNA 1: GCTGTCAACGTTCAAAGGTAACGTAAGTATCCACACGCGATTGACAGCGTAGAATGAAGG
DNA 2: CCTTCATTCTACGCTGTCAATCGCGTGTGGATACTTACGTTACCTTTGAACGTTGACAGC
B9: NRC3_wobSeed138_DR5_A14G_o1 (dsDNA)
DNA 1: B2 DNA 1 with G8A, A14G
DNA 2: B2 DNA 2 with T47C, C53T
B10: NRC3_wobSeed46_DR1_A16C_o1 (dsDNA)
DNA 1: GCTTACCAAGGTGAACGGTCGTTGATGCACGCCTTGGCGATTGACAGCGTAGAATGAAGG
DNA 2: CCTTCATTCTACGCTGTCAATCGCCAAGGCGTGCATCAACGACCGTTCACCTTGGTAAGC
B11: NRC3_wobSeed87_DR3_A14G_o1 (dsDNA)
DNA 1: GCCGAACTAGGTCGTCCAGGACAGTGAATACATTGAGCGATTGACAGCGTAGAATGAAGG
DNA 2: CCTTCATTCTACGCTGTCAATCGCTCAATGTATTCACTGTCCTGGACGACCTAGTTCGGC
B12: NRC3_wobSeed87_DR3_G10C_o1 (dsDNA)
DNA 1: B11 DNA 1 with G10C, G14A
DNA 2: B11 DNA 2 with C47T, C51G
B13: NRC3_wobSeed41_DR1_G17C_o1 (dsDNA)
DNA 1: GCATATGTAGGTTAAGCGTCATTCAGGTTGGTTCGCGCGATTGACAGCGTAGAATGAAGG
DNA 2: CCTTCATTCTACGCTGTCAATCGCGCGAACCAACCTGAATGACGCTTAACCTACATATGC
B14: NRC3_wobSeed93_DR3_C13T_o1 (dsDNA)
DNA 1: GCAGTCAAAGTTTATCTAGGTAACGTAAGATATGCTGCGATTGACAGCGTAGAATGAAGG
DNA 2: CCTTCATTCTACGCTGTCAATCGCAGCATATCTTACGTTACCTAGATAAACTTTGACTGC
B15: NRC3_wobSeed82_DR3_G14C_o1 (dsDNA)
DNA 1: GCATCGAAAGGTCCACGAGGTGAGTATACACCGTTTGCGATTGACAGCGTAGAATGAAGG
DNA 2: CCTTCATTCTACGCTGTCAATCGCAAACGGTGTATACTCACCTCGTGGACCTTTCGATGC
B16: NRC3_wobSeed101_DR4_A14C_o1 (dsDNA)
DNA 1: GCCCTTACGGGTCCCTCCAGGTTATAGCATCGGAGTGCGATTGACAGCGTAGAATGAAGG
DNA 2: CCTTCATTCTACGCTGTCAATCGCACTCCGATGCTATAACCTGGAGGGACCCGTAAGGGC
B17: NRC3_wobSeed141_DR5_G10C_o1 (dsDNA)
DNA 1: GCAGTCAAACTTCAGGACGAGGTAACGTAAAGCACGGCGATTGACAGCGTAGAATGAAGG
DNA 2: CCTTCATTCTACGCTGTCAATCGCCGTGCTTTACGTTACCTCGTCCTGAAGTTTGACTGC
B18: NRC3_wobSeed39_DR1_A14T_o1 (dsDNA)
DNA 1: GCCGAACTAGGTCTAAGGACAGTGAAAGGCGACGTAGCGATTGACAGCGTAGAATGAAGG
DNA 2: CCTTCATTCTACGCTGTCAATCGCTACGTCGCCTTTCACTGTCCTTAGACCTAGTTCGGC
B19: NRC3_wobSeed15_DR0_A14G_o1 (dsDNA)
DNA 1: GCCGAACTAGGTCGAGGACAGTGAATCTCCGCACGCGCGATTGACAGCGTAGAATGAAGG
DNA 2: CCTTCATTCTACGCTGTCAATCGCGCGTGCGGAGATTCACTGTCCTCGACCTAGTTCGGC
B20: NRC3_random_hg19_51_o1 (dsDNA)
DNA 1: GCGAGAAAGCTGAACTGTCACTCTTTGCTGATGATGGCGATTGACAGCGTAGAATGAAGG
DNA 2: CCTTCATTCTACGCTGTCAATCGCCATCATCAGCAAAGAGTGACAGTTCAGCTTTCTCGC
B21: NRC3_random_hg19_168_o1 (dsDNA)
DNA 1: GCACAGAAATGAAATGGGCTATAGAGCTCATCTTCTGCGATTGACAGCGTAGAATGAAGG
DNA 2: CCTTCATTCTACGCTGTCAATCGCAGAAGATGAGCTCTATAGCCCATTTCATTTCTGTGC
B22: NRC3_random_hg19_253_o1 (dsDNA)
DNA 1: GCTAGCCCTCTCAGAGGACAGAGCTAGGATAGCATGGCGATTGACAGCGTAGAATGAAGG
DNA 2: CCTTCATTCTACGCTGTCAATCGCCATGCTATCCTAGCTCTGTCCTCTGAGAGGGCTAGC
B23: NRC3_random_hg19_313_o1 (dsDNA)
DNA 1: GCACTACATAAGTAATCATCTCCCTCTGCAACTGGGGCGATTGACAGCGTAGAATGAAGG
DNA 2: CCTTCATTCTACGCTGTCAATCGCCCCAGTTGCAGAGGGAGATGATTACTTATGTAGTGC
B24: NRC3_random_hg19_218_o1 (dsDNA)
DNA 1: GCTTAGTCATGAAGTCTTTGCCCATGCCTGTGTCCTGCGATTGACAGCGTAGAATGAAGG
DNA 2: CCTTCATTCTACGCTGTCAATCGCAGGACACAGGCATGGGCAAAGACTTCATGACTAAGC
B25: NRC3_random_hg19_416_o1 (dsDNA)
DNA 1: GCCCTAGTTGGACCTGTGGGAAGGGCACTACTGTTCGCGATTGACAGCGTAGAATGAAGG
DNA 2: CCTTCATTCTACGCTGTCAATCGCGAACAGTAGTGCCCTTCCCACAGGTCCAACTAGGGC
B26: NRC3_random_hg19_231_o1 (dsDNA)
DNA 1: GCATTACAAAGGTGCTGGAAAGGCTTGGGAGGAGCAGCGATTGACAGCGTAGAATGAAGG
DNA 2: CCTTCATTCTACGCTGTCAATCGCTGCTCCTCCCAAGCCTTTCCAGCACCTTTGTAATGC
B27: NRC3_random_hg19_175_o1 (dsDNA)
DNA 1: GCGAGGAAGCTAAGCACTGCAAGGAAGAGGGTCAGAGCGATTGACAGCGTAGAATGAAGG
DNA 2: CCTTCATTCTACGCTGTCAATCGCTCTGACCCTCTTCCTTGCAGTGCTTAGCTTCCTCGC
B28: NRC3_random_hg19_328_o1 (dsDNA)
DNA 1: GCACTTAGAGCCCAGGAGCTTGAGGTCGCAGCTACTGCGATTGACAGCGTAGAATGAAGG
DNA 2: CCTTCATTCTACGCTGTCAATCGCAGTAGCTGCGACCTCAAGCTCCTGGGCTCTAAGTGC
B29: NRC3_random_hg19_410_o1 (dsDNA)
DNA 1: GCTAACGAATGATCTTTCTAATGTGTTGTTGAATTCGCGATTGACAGCGTAGAATGAAGG
DNA 2: CCTTCATTCTACGCTGTCAATCGCGAATTCAACAACACATTAGAAAGATCATTCGTTAGC

RARg:RXRa, sequence (P13631 whole entry, chain 1 of 2): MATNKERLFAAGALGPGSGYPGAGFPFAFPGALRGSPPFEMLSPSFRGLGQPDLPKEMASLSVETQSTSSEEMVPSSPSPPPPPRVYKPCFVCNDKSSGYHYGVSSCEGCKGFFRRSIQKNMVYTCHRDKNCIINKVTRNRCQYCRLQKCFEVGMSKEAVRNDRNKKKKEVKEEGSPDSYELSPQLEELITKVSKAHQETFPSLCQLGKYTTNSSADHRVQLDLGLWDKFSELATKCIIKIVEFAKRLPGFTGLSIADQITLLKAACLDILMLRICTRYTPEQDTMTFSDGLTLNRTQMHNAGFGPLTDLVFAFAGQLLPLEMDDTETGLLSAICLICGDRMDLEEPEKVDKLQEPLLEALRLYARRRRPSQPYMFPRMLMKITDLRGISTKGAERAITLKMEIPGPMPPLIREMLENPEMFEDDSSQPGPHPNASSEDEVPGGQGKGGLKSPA
RARg:RXRa, sequence (P19793 whole entry, chain 2 of 2): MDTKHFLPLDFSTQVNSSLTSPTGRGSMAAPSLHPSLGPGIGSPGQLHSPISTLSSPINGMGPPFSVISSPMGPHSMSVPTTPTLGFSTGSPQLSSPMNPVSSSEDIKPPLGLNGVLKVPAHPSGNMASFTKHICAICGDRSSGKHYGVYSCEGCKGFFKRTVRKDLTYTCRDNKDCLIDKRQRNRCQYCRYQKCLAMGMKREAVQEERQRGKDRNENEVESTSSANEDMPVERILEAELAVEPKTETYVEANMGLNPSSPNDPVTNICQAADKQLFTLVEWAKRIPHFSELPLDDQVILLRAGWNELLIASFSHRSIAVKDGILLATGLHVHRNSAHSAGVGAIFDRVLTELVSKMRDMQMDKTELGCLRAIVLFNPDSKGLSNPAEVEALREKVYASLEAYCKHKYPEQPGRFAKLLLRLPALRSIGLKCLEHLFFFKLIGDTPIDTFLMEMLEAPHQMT
PPARa:RXRa, sequence (Q07869 whole entry, chain 1 of 2): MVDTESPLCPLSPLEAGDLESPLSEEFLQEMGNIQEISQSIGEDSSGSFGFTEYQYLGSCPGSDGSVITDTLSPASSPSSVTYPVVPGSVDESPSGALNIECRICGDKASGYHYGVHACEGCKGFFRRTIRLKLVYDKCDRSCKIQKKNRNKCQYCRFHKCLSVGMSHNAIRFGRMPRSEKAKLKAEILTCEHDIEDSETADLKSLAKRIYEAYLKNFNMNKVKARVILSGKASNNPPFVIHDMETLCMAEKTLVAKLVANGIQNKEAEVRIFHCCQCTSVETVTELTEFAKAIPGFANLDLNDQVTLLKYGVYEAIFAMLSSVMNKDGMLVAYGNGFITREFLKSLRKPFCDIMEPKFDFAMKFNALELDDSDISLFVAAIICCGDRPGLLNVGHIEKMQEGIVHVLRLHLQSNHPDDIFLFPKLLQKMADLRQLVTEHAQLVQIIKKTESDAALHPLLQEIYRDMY
PPARa:RXRa, sequence (P19793 whole entry, chain 2 of 2): as the sequence (P19793 whole entry, chain 2 of 2) above
FXR:RXRa, sequence (Q96RI1 whole entry, chain 1 of 2): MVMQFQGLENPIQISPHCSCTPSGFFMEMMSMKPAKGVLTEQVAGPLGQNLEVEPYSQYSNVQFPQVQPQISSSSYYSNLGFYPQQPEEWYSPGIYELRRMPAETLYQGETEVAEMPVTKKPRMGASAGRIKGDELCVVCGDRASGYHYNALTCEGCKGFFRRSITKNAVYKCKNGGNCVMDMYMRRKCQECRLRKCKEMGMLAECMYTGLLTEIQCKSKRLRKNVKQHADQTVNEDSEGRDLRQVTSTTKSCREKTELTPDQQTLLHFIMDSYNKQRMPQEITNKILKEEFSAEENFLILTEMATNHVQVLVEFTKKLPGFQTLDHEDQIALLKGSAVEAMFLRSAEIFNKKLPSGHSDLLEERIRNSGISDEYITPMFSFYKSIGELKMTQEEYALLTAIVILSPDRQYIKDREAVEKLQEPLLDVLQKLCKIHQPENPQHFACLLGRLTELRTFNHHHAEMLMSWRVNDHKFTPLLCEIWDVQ
FXR:RXRa, sequence (P19793 whole entry, chain 2 of 2): as the sequence (P19793 whole entry, chain 2 of 2) above

One series has as its target PPARa:RXRa (Homo sapiens, UniProt Q07869;P19793 full;full). Nature of the series: no ligand; PBM; 270 nM : 90 nM RXRa; PBS pH 7.4, 2% milk, 0.02% Triton X-100, 1 mM DTT, BSA, 0.4 mg/ml salmon testes DNA. As to conditions: tags: GST kept;His cleaved; copies: 1;1; label: surface-attached array probe. The method, boiled down:
(§1)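 Probes were double-stranded and carried 34-nt variable regions with direct-repeat seeds, single-nucleotide variants, half-site ablations and random human genomic background sequences, printed on custom Agilent 4×180K protein-binding microarrays. Arrays were incubated 1 h with ligand-free nuclear receptor dimers in PBS pH 7.4, 2% milk, 0.02% Triton X-100, 1 mM DTT, 0.2 mg/mL BSA and 0.4 mg/ml salmon testes DNA. Antibodies against each partner (one per run) detected binding, and scanned fluorescence was regression-normalized. Binding z-scores use the random background probes as reference.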
Consider B1, for which the binding signal is -0.83 PBM z-score against 500 random probes.
Same read-out and setting: the same measure for B2: 6.77 PBM z-score against 500 random probes.
With B3, the binding signal was -1.96 PBM z-score against 500 random probes.
Same read-out and setting: in the case of B4 it was -0.11 PBM z-score against 500 random probes; in that of B5, 0.29 PBM z-score against 500 random probes.
Same read-out and setting: the same measure for B6: -0.47 PBM z-score against 500 random probes.

The next series has as its target FXR:RXRa (Homo sapiens, UniProt Q96RI1;P19793 full;full). Described as above. As to conditions: tags: His kept;His cleaved; copies: 1;1; label: surface-attached array probe. The method, boiled down:
as §1
Regarding B7, the binding signal was 0.2 PBM z-score against 500 random probes.
Still for that read-out and setting: the same measure for B8: 0.46 PBM z-score against 500 random probes.
Same read-out and setting: in the case of B9 it was 0.37 PBM z-score against 500 random probes; in that of B10, 0.48 PBM z-score against 500 random probes; in that of B11, 0.36 PBM z-score against 500 random probes.
The same measure, in the same setting: the same measure for B12: 0.27 PBM z-score against 500 random probes; for B13: 0.45 PBM z-score against 500 random probes; for B14: 0.4 PBM z-score against 500 random probes.
For B15, the binding signal was 0.48 PBM z-score against 500 random probes.
On the same count and under the same terms, the same measure for B16: 0.32 PBM z-score against 500 random probes.
For B17, the binding signal was 0.23 PBM z-score against 500 random probes.
The same measure, in the same setting: in the case of B18 it was 0.18 PBM z-score against 500 random probes; in that of B19, 0.21 PBM z-score against 500 random probes.

Another series deals with RARg:RXRa (Homo sapiens, UniProt P13631;P19793 full;full). Described as above. The conditions noted are these: tags: His kept;His cleaved; copies: 1;1; label: surface-attached array probe. In outline:
as §1
For B20, the binding signal is 0.04 PBM z-score against 500 random probes.
Turning to B21, the binding signal was -0.02 PBM z-score against 500 random probes.
Still for that read-out and setting: in the case of B1 it was -0.4 PBM z-score against 500 random probes.
Take B22: the binding signal is -0.23 PBM z-score against 500 random probes.
Still for that read-out and setting: in the case of B23 it was 0.18 PBM z-score against 500 random probes; in that of B24, -0.54 PBM z-score against 500 random probes.
On the same count and under the same terms, the same measure for B2: 7.98 PBM z-score against 500 random probes.
On the same count and under the same terms, in the case of B3 it was -0.69 PBM z-score against 500 random probes; in that of B25, -0.27 PBM z-score against 500 random probes; in that of B4, -1.07 PBM z-score against 500 random probes.
With B5, the binding signal is 0.15 PBM z-score against 500 random probes.
As to B26, the binding signal is -0.04 PBM z-score against 500 random probes.
Same read-out and setting: in the case of B27 it was -0.07 PBM z-score against 500 random probes; in that of B28, 0.09 PBM z-score against 500 random probes.
The same measure, in the same setting: the same measure for B6: -0.25 PBM z-score against 500 random probes; for B29: 0.07 PBM z-score against 500 random probes.
